Tests used:
[1] = target: F protein mutant RSV-DS-Cav1-B with a DS-Cav1 structure before fusion (respiratory syncytial virus subtype B, strain 18537) (UniProt P13843)
[2] = target: F protein mutant RSV-DS-Cav1-B with a DS-Cav1 structure before fusion (respiratory syncytial virus subtype B, strain 18537) (UniProt P13843); remark: listed apart in the source

Sequence of anti-RSV monoclonal antibody Nirsevimab (MEDI8897) (VH): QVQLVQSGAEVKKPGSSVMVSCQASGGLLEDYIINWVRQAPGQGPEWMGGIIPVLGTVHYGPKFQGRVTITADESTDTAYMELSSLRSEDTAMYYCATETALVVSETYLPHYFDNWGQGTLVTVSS
Sequence of anti-RSV monoclonal antibody Nirsevimab (MEDI8897) (VL): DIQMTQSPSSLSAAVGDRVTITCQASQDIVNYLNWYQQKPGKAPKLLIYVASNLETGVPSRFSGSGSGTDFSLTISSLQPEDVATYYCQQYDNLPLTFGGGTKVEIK
Sequence of anti-RSV monoclonal antibody Clesrovimab (RB1) (VH): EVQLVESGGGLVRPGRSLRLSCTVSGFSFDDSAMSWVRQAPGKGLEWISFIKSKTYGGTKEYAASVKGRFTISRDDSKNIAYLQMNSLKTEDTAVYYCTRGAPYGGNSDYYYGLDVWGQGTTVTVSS
Sequence of anti-RSV monoclonal antibody Clesrovimab (RB1) (VL): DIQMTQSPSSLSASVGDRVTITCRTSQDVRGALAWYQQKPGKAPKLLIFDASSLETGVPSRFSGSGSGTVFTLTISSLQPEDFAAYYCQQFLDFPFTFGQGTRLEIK

With “anti-RSV monoclonal antibody Nirsevimab (MEDI8897)” the Kd [1] was 3.08 nM, the koff [1] was 0.000333 s⁻¹ and the kon [1] was 108000 M⁻¹ s⁻¹. The EC50 (read off the curve) [2] was 10 nM.
“anti-RSV monoclonal antibody Clesrovimab (RB1)” showed a Kd [1] of 0.00895 nM, a koff [1] of 8.21e-05 s⁻¹ and a kon [1] of 9.17e+06 M⁻¹ s⁻¹.

Source: patent publication US20250388652A1
